Results reported in patent EP4722253A1.

Target: HER2 expressed on JIMT-1 cells (UniProt P04626)
Experiment: flow cytometry on JIMT-1 cells, antibody at 100 nM, FITC secondary

IgG control (antibody)
MFI: 12500
